Test results taken from FireProtDB (doi:10.1006/jmbi.1995.0616).

B1: Subtilisin-chymotrypsin inhibitor-2A, P01053 (parent)
chain: MSSVEKKPEGVNTGAGDRHNLKTEWPELVGKSVEEAKKVILQDKPEAQIIVLPVGTIVTMEYRIDRVRLFVDKLDNIAQVPRVG

Variants of: B1
Settings: Hordeum vulgare; pH 6.25; 25 °C; GdnHCl; Fluorescence; MES 50 mM; reversible: yes; structure 2CI2; whole UniProt chain shown

Variant	ddG of mutation (higher = less stable) [kcal/mol]	denaturant m value [kcal/mol/M]	denaturant midpoint (higher = more stable) [M]	unfolding free energy [kcal/mol]
MSSVEKKPEGVNTGAGDRHNLKTEWPELVGKSVEEAKKVILADKPEAQIIVLPVGTIVTMEYRIDRVRLFVDKLDNIAQVPRVG	0.54	1.77	3.99	7.06
MSSVEKKPEGVNTGAGDRHNLKTEWPELVGKSVEEAKKVILGDKPEAQIIVLPVGTIVTMEYRIDRVRLFVDKLDNIAQVPRVG	0.92	1.81	3.69	6.68
MSSVEKKPEGVNTGAGDRHNLKTEWPELVGKSVEEAKKVILQAKPEAQIIVLPVGTIVTMEYRIDRVRLFVDKLDNIAQVPRVG	1.05	1.87	3.51	6.55
MSSVEKKPEGVNTGAGDRHNLKTEWPELVGKSVEEAKKVILQDAPEAQIIVLPVGTIVTMEYRIDRVRLFVDKLDNIAQVPRVG	1.85	1.57	3.67	5.75
MSSVEKKPEGVNTGAGDRHNLKTEWPELVGKSVEEAKKVILQDKAEAQIIVLPVGTIVTMEYRIDRVRLFVDKLDNIAQVPRVG	1.22	2.07	3.09	6.38
MSSVEKKPEGVNTGAGDRHNLKTEWPELVGKSVEEAKKVILQDKPAAQIIVLPVGTIVTMEYRIDRVRLFVDKLDNIAQVPRVG	0.78	1.78	3.83	6.82
MSSVEKKPEGVNTGAGDRHNLKTEWPELVGKSVEEAKKVILQDKPEAMIIVLPVGTIVTLEYRIDRVRLFVDKLDNIAQVPRVG	0.18	1.78	4.16	7.42
MSSVEKKPEGVNTGAGDRHNLKTEWPELVGKSVEEAKKVILQDKPEAQIIVAPVGTIVTMEYRIDRVRLFVDKLDNIAQVPRVG	1.74	2.11	2.78	5.86
MSSVEKKPEGVNTGAGDRHNLKTEWPELVGKSVEEAKKVILQDKPEAQIIVAPVGTIVTMEYRIDRVRLAVDKLDNIAQVPRVG	5.16	1.59	1.53	2.44
MSSVEKKPEGVNTGAGDRHNLKTEWPELVGKSVEEAKKVILQDKPEAQIIVAPVGTIVTMEYRIDRVRLLVDKLDNIAQVPRVG	3.25	1.94	2.24	4.35
MSSVEKKPEGVNTGAGDRHNLKTEWPELVGKSVEEAKKVILQDKPEAQIIVAPVGTIATMEYRIDRVRLFVDKLDNIAQVPRVG	2.95	1.96	2.37	4.65
MSSVEKKPEGVNTGAGDRHNLKTEWPELVGKSVEEAKKVILQDKPEAQIIVAPVGTIATMEYRIDRVRLLVDKLDNIAQVPRVG	3.34	1.93	2.21	4.26
MSSVEKKPEGVNTGAGDRHNLKTEWPELVGKSVEEAKKVILQDKPEAQIIVIPVGTIVTMEYRIDRVRLFVDKLDNIAQVPRVG	1.01	1.7	3.87	6.59
MSSVEKKPEGVNTGAGDRHNLKTEWPELVGKSVEEAKKVILQDKPEAQIIVVPVGTIVTMEYRIDRVRLFVDKLDNIAQVPRVG	1.02	1.76	3.74	6.58
MSSVEKKPEGVNTGAGDRHNLKTEWPELVGKSVEEAKKVILQDKPEAQIIVVPVGTIVTMEYRIDRVRLAVDKLDNIAQVPRVG	3.26	1.94	2.24	4.34
MSSVEKKPEGVNTGAGDRHNLKTEWPELVGKSVEEAKKVILQDKPEAQIIVVPVGTIVTMEYRIDRVRLLVDKLDNIAQVPRVG	1.08	2.37	2.75	6.52
MSSVEKKPEGVNTGAGDRHNLKTEWPELVGKSVEEAKKVILQDKPEAQIIVVPVGTIATMEYRIDRVRLFVDKLDNIAQVPRVG	1.93	1.86	3.05	5.67
MSSVEKKPEGVNTGAGDRHNLKTEWPELVGKSVEEAKKVILQDKPEAQIIVVPVGTIATMEYRIDRVRLLVDKLDNIAQVPRVG	2.84	1.83	2.6	4.76
MSSVEKKPEGVNTGAGDRHNLKTEWPELVGKSVEEAKKVILQDKPEAQIIVLAVGTIVTMEYRIDRVRLFVDKLDNIAQVPRVG	0.58	1.79	3.91	7.02

Variant	ddG of mutation (higher = less stable) [kcal/mol]	denaturant m value [kcal/mol/M]	denaturant midpoint (higher = more stable) [M]	unfolding free energy [kcal/mol]
MSSVEKKPEGVNTGAGDRHNLKTEWPELVGKSVEEAKKVILQDKPEAQIIVLPVGAIVTMEYRIDRVRLFVDKLDNIAQVPRVG	1.42	1.5	4.12	6.18
MSSVEKKPEGVNTGAGDRHNLKTEWPELVGKSVEEAKKVILQDKPEAQIIVLPVGSIVTMEYRIDRVRLFVDKLDNIAQVPRVG	0.98	1.66	3.99	6.62
MSSVEKKPEGVNTGAGDRHNLKTEWPELVGKSVEEAKKVILQDKPEAQIIVLPVGVIVTMEYRIDRVRLFVDKLDNIAQVPRVG	1.57	1.67	3.61	6.03
MSSVEKKPEGVNTGAGDRHNLKTEWPELVGKSVEEAKKVILQDKPEAQIIVLPVGTAVTMEYRIDRVRLFVDKLDNIAQVPRVG	1.28	1.59	3.98	6.32
MSSVEKKPEGVNTGAGDRHNLKTEWPELVGKSVEEAKKVILQDKPEAQIIVLPVGTIATMEYRIDRVRLFVDKLDNIAQVPRVG	0.67	2.14	3.24	6.93
MSSVEKKPEGVNTGAGDRHNLKTEWPELVGKSVEEAKKVILQDKPEAQIIVLPVGTIATMEYRIDRVRLLVDKLDNIAQVPRVG	2.2	2.02	2.67	5.4
MSSVEKKPEGVNTGAGDRHNLKTEWPELVGKSVEEAKKVILQDKPEAQIIVLPVGTIATMEYRIDRVRLFVDKLDNIAQAPRVG	3.78	2.19	1.75	3.82
MSSVEKKPEGVNTGAGDRHNLKTEWPELVGKSVEEAKKVILQDKPEAQIIVLPVGTIVTMAYRIDRVRLFVDKLDNIAQVPRVG	1.12	1.78	3.64	6.48
MSSVEKKPEGVNTGAGDRHNLKTEWPELVGKSVEEAKKVILQDKPEAQIIVLPVGTIVTMEYAIDRVRLFVDKLDNIAQVPRVG	1.02	1.78	3.7	6.58
MSSVEKKPEGVNTGAGDRHNLKTEWPELVGKSVEEAKKVILQDKPEAQIIVLPVGTIVTMEYAIARVRLFVDKLDNIAQVPRVG	2.46	1.53	3.37	5.14
MSSVEKKPEGVNTGAGDRHNLKTEWPELVGKSVEEAKKVILQDKPEAQIIVLPVGTIVTMEYRIARVRLFVDKLDNIAQVPRVG	1.02	1.83	3.59	6.58
MSSVEKKPEGVNTGAGDRHNLKTEWPELVGKSVEEAKKVILQDKPEAQIIVLPVGTIVTMEYRIDRVRLAVDKLDNIAQVPRVG	3.21	2.17	2.02	4.39
MSSVEKKPEGVNTGAGDRHNLKTEWPELVGKSVEEAKKVILQDKPEAQIIVLPVGTIVTMEYRIDRVRLLVDKLDNIAQVPRVG	1.92	1.95	2.91	5.68
MSSVEKKPEGVNTGAGDRHNLKTEWPELVGKSVEEAKKVILQDKPEAQIIVLPVGTIVTMEYRIDRVRLVVDKLDNIAQVPRVG	1.41	2.24	2.77	6.19
MSSVEKKPEGVNTGAGDRHNLKTEWPELVGKSVEEAKKVILQDKPEAQIIVLPVGTIVTMEYRIDRVRLFVAKLDNIAQVPRVG	3.14	1.99	2.24	4.46
MSSVEKKPEGVNTGAGDRHNLKTEWPELVGKSVEEAKKVILQDKPEAQIIVLPVGTIVTMEYRIDRVRLFVDNLDNIAQVPRVG	1.21	1.6	4	6.39
MSSVEKKPEGVNTGAGDRHNLKTEWPELVGKSVEEAKKVILQDKPEAQIIVLPVGTIVTMEYRIDRVRLFVDKLDNIAQVARVG	3.5	1.8	2.28	4.1
MSSVEKKPEGVNTGAGDRHNLKTEWAELVGKSVEEAKKVILQDKPEAQIIVLPVGTIVTMEYRIDRVRLFVDKLDNIAQVPRVG		3.46	3.19	
